Assay results taken from article PMC9482650, “Quantitative fragmentomics allow affinity mapping of interactomes” (Nature Communications, 2022).

What was measured:
Test in all cases: holdup assay
Parameters in all cases: key: below the threshold = too weak to quantify, mostly under pKd 3.1 to 4
PDZD7_3, Q9H5P4 = molecular target: T1, PDZD7_3, Q9H5P4
T1 sequence (Q9H5P4 857-944, limits assumed, looked up): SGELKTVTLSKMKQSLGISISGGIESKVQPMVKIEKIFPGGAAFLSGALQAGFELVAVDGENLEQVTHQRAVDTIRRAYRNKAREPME

DLG1_2, Q12959 = molecular target: DLG1_2, Q12959
IL16_3, Q14005 = molecular target: IL16_3, Q14005
DLG4_2, P78352 = molecular target: DLG4_2, P78352
GRIP1_7, Q9Y3R0 = molecular target: T2, GRIP1_7, Q9Y3R0
T2 sequence (Q9Y3R0 999-1096, limits assumed, looked up): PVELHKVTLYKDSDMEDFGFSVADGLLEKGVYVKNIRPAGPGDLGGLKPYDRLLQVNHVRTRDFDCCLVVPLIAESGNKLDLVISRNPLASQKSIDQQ

LIN7A, O14910 = molecular target: T3, LIN7A, O14910
T3 sequence (O14910 103-200, limits assumed, looked up): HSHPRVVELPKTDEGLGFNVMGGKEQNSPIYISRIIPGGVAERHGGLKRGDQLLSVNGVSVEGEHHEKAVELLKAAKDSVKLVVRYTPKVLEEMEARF

DLG4_3, P78352 = molecular target: DLG4_3, P78352
GRIP2_4, Q9C0E4 = molecular target: GRIP2_4, Q9C0E4
GRIP2_7, Q9C0E4 = molecular target: GRIP2_7, Q9C0E4
CARD11, Q9BXL7 = molecular target: T4, CARD11, Q9BXL7
T4 sequence (Q9BXL7 662-765, limits assumed, looked up): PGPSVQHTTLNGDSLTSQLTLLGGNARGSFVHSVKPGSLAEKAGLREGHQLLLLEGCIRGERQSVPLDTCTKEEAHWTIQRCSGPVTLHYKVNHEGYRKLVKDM

FRMPD2_3, Q68DX3 = molecular target: FRMPD2_3, Q68DX3
MPP7, Q5T2T1 = molecular target: T5, MPP7, Q5T2T1
T5 sequence (Q5T2T1 134-230, limits assumed, looked up): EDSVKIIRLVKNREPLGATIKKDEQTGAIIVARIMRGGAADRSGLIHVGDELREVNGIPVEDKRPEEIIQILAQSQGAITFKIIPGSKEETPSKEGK

Inadl_2, Q8NI35 = molecular target: Inadl_2, Q8NI35
NHERF4_1, Q86UT5-2 = molecular target: NHERF4_1, Q86UT5-2
HTRA2, O43464 = molecular target: HTRA2, O43464
NHERF4_2, Q86UT5 = molecular target: NHERF4_2, Q86UT5
DVL3, Q92997 = molecular target: T6, DVL3, Q92997
T6 sequence (Q92997 244-331, limits assumed, looked up): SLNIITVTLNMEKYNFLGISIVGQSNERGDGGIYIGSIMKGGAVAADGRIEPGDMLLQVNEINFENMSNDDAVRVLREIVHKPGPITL

GRID2IP_2, A4D2P6 = molecular target: GRID2IP_2, A4D2P6
FRMPD2_1, Q68DX3 = molecular target: FRMPD2_1, Q68DX3
GRIP1_3, Q9Y3R0 = molecular target: T7, GRIP1_3, Q9Y3R0
T7 sequence (Q9Y3R0 247-346, limits assumed, looked up): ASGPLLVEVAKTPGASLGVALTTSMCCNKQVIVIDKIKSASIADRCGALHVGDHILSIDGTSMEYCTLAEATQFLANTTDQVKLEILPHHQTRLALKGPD

MAST1, Q9Y2H9 = molecular target: MAST1, Q9Y2H9
SNX27, Q96L92 = molecular target: SNX27, Q96L92
NHERF4_4, Q86UT5 = molecular target: NHERF4_4, Q86UT5
SNTG2, Q9NY99 = molecular target: T8, SNTG2, Q9NY99
T8 sequence (Q9NY99 68-166, limits assumed, looked up): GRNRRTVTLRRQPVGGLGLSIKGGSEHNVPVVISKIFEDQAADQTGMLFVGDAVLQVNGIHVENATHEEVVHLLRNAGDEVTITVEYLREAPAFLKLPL

SYNJ2BP, P57105 = molecular target: T9, SYNJ2BP, P57105
T9 sequence (P57105 8-110, limits assumed, looked up): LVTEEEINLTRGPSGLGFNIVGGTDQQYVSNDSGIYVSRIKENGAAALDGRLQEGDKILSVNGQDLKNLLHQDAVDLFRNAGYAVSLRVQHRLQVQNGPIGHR

IL16_1, Q14005 = molecular target: IL16_1, Q14005
GRIP1_4, Q9Y3R0 = molecular target: T10, GRIP1_4, Q9Y3R0
T10 sequence (Q9Y3R0 467-571, limits assumed, looked up): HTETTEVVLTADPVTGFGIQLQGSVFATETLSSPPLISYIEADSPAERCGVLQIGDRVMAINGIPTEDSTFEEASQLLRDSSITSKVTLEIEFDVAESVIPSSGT

MAGI1_2, Q96QZ7 = molecular target: MAGI1_2, Q96QZ7
[1] = modified: phospho on T at position -2 from the C-terminal residue
[2] = plain residues with an end cap or a label only (N-terminal biotin on a linker: ado-ado)

Measured: pKd

Chain of GRIP2_4, Q9C0E4 (Q9C0E4 446-548): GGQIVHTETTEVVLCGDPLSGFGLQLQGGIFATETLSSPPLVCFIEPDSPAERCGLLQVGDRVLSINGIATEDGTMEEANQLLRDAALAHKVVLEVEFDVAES
Chain of Inadl_2, Q8NI35 (Q8NI35 238-335): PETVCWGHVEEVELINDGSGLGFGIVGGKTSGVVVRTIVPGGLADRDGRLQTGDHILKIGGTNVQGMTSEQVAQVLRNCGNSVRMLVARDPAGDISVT
Chain of NHERF4_1, Q86UT5-2 (Q86UT5 other isoform, or with tags, fused parts or gaps): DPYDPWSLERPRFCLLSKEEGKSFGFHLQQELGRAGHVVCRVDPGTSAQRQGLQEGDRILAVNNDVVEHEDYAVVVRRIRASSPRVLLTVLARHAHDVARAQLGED
Chain of MAGI1_2, Q96QZ7 (Q96QZ7 456-580): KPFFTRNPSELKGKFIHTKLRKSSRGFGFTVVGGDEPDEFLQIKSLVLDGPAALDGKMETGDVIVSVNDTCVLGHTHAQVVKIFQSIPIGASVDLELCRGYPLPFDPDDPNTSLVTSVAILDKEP
Chain of MAST1, Q9Y2H9 (Q9Y2H9 962-1065): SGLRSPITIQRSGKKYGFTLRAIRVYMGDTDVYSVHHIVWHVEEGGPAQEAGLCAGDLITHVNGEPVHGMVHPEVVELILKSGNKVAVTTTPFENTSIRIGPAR
Chain of FRMPD2_1, Q68DX3 (Q68DX3 770-861): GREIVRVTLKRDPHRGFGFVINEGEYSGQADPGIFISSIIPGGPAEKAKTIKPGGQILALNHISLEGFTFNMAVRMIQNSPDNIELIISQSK
Chain of NHERF4_4, Q86UT5 (Q86UT5 464-550): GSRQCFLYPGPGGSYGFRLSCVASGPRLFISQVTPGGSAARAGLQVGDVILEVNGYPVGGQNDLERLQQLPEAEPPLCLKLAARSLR
Chain of IL16_1, Q14005 (Q14005 210-306): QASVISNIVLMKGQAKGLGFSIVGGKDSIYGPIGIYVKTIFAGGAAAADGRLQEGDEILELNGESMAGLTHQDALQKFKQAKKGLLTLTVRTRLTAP
Chain of DLG1_2, Q12959 (Q12959 314-412): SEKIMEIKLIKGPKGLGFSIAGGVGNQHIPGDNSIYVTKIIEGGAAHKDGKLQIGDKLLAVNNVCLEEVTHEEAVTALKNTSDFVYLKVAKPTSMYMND
Chain of DLG4_3, P78352 (P78352 306-403): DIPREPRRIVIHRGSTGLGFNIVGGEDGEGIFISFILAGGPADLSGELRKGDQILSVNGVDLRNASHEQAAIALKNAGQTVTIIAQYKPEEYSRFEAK
Chain of DLG4_2, P78352 (P78352 155-259): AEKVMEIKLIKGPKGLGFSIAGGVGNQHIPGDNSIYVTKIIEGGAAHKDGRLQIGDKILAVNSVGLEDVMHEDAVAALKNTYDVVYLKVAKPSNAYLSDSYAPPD
Chain of NHERF4_2, Q86UT5 (Q86UT5 220-308): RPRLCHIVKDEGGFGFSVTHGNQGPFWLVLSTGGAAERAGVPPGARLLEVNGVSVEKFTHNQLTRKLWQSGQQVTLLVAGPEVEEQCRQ
Chain of GRIP2_7, Q9C0E4 (Q9C0E4 934-1023): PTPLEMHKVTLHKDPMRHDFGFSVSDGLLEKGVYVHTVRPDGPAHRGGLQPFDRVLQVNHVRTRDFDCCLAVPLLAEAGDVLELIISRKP
Chain of IL16_3, Q14005 (Q14005 1107-1207): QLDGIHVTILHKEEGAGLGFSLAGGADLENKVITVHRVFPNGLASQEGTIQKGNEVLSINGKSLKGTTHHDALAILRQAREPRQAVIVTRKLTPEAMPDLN
Chain of HTRA2, O43464 (O43464 355-458): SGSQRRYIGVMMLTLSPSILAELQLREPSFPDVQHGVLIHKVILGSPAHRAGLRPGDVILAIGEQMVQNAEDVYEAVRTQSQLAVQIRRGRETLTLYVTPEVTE
Chain of FRMPD2_3, Q68DX3 (Q68DX3 1073-1166): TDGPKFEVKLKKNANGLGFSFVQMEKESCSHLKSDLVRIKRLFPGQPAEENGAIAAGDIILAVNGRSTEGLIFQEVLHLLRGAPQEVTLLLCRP
Chain of GRID2IP_2, A4D2P6 (A4D2P6 272-370): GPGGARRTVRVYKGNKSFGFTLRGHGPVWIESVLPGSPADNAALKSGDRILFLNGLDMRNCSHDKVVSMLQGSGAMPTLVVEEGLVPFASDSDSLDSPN

B1: HPV16-E6_-2P, P03126 (peptide)
chain: SSRTRRETQL
4.37: NHERF4_1, Q86UT5-2; [1]
below the threshold: PDZD7_3, Q9H5P4; [1] | DLG1_2, Q12959; [1] | IL16_3, Q14005; [1] | DLG4_2, P78352; [1] | GRIP1_7, Q9Y3R0; [1] | LIN7A, O14910; [1] | DLG4_3, P78352; [1] | GRIP2_4, Q9C0E4; [1] | GRIP2_7, Q9C0E4; [1] | CARD11, Q9BXL7; [1] | FRMPD2_3, Q68DX3; [1] | MPP7, Q5T2T1; [1] | Inadl_2, Q8NI35; [1] | HTRA2, O43464; [1] | NHERF4_2, Q86UT5; [1] | DVL3, Q92997; [1] | GRID2IP_2, A4D2P6; [1] | FRMPD2_1, Q68DX3; [1] | GRIP1_3, Q9Y3R0; [1] | MAST1, Q9Y2H9; [1] | SNX27, Q96L92; [1] | NHERF4_4, Q86UT5; [1] | SNTG2, Q9NY99; [1] | SYNJ2BP, P57105; [1] | IL16_1, Q14005; [1] | GRIP1_4, Q9Y3R0; [1] | MAGI1_2, Q96QZ7; [1]

B2: GPR12, P47775 (peptide)
chain: AQRARSPSDV
3.92: DLG4_2, P78352; [2]
4.14: SYNJ2BP, P57105; [2]
below the threshold: IL16_3, Q14005; [2] | GRIP1_7, Q9Y3R0; [2] | LIN7A, O14910; [2] | DLG4_3, P78352; [2] | GRIP2_4, Q9C0E4; [2] | GRIP2_7, Q9C0E4; [2] | CARD11, Q9BXL7; [2] | FRMPD2_3, Q68DX3; [2] | Inadl_2, Q8NI35; [2] | NHERF4_1, Q86UT5-2; [2] | HTRA2, O43464; [2] | NHERF4_2, Q86UT5; [2] | DVL3, Q92997; [2] | GRID2IP_2, A4D2P6; [2] | FRMPD2_1, Q68DX3; [2] | GRIP1_3, Q9Y3R0; [2] | MAST1, Q9Y2H9; [2] | SNX27, Q96L92; [2] | NHERF4_4, Q86UT5; [2] | SNTG2, Q9NY99; [2] | IL16_1, Q14005; [2] | GRIP1_4, Q9Y3R0; [2] | MAGI1_2, Q96QZ7; [2]
3.75: DLG1_2, Q12959; [2]
3.48: PDZD7_3, Q9H5P4; [2]
3.59: MPP7, Q5T2T1; [2]

B3: MYOT, Q9UBF9 (peptide)
chain: QSGLYESEEL
3.59: SYNJ2BP, P57105; [2]
below the threshold: DLG1_2, Q12959; [2] | IL16_3, Q14005; [2] | GRIP1_7, Q9Y3R0; [2] | LIN7A, O14910; [2] | DLG4_3, P78352; [2] | GRIP2_4, Q9C0E4; [2] | GRIP2_7, Q9C0E4; [2] | CARD11, Q9BXL7; [2] | FRMPD2_3, Q68DX3; [2] | MPP7, Q5T2T1; [2] | Inadl_2, Q8NI35; [2] | HTRA2, O43464; [2] | NHERF4_2, Q86UT5; [2] | DVL3, Q92997; [2] | GRID2IP_2, A4D2P6; [2] | FRMPD2_1, Q68DX3; [2] | GRIP1_3, Q9Y3R0; [2] | MAST1, Q9Y2H9; [2] | SNX27, Q96L92; [2] | NHERF4_4, Q86UT5; [2] | SNTG2, Q9NY99; [2] | IL16_1, Q14005; [2] | GRIP1_4, Q9Y3R0; [2] | MAGI1_2, Q96QZ7; [2]
4.41: NHERF4_1, Q86UT5-2; [2]
3.63: PDZD7_3, Q9H5P4; [2]
3.53: DLG4_2, P78352; [2]

B4: CACNA1A, O00555 (peptide)
chain: PYSESDDDWC
below the threshold: PDZD7_3, Q9H5P4; [2] | DLG1_2, Q12959; [2] | IL16_3, Q14005; [2] | DLG4_2, P78352; [2] | GRIP1_7, Q9Y3R0; [2] | LIN7A, O14910; [2] | DLG4_3, P78352; [2] | GRIP2_4, Q9C0E4; [2] | GRIP2_7, Q9C0E4; [2] | CARD11, Q9BXL7; [2] | FRMPD2_3, Q68DX3; [2] | MPP7, Q5T2T1; [2] | Inadl_2, Q8NI35; [2] | HTRA2, O43464; [2] | NHERF4_2, Q86UT5; [2] | DVL3, Q92997; [2] | GRID2IP_2, A4D2P6; [2] | FRMPD2_1, Q68DX3; [2] | GRIP1_3, Q9Y3R0; [2] | MAST1, Q9Y2H9; [2] | NHERF4_4, Q86UT5; [2] | SNTG2, Q9NY99; [2] | IL16_1, Q14005; [2] | GRIP1_4, Q9Y3R0; [2] | MAGI1_2, Q96QZ7; [2]
3.6: SYNJ2BP, P57105; [2]
4.01: NHERF4_1, Q86UT5-2; [2]
4.09: SNX27, Q96L92; [2]

B5: OR8G1, Q15617 (peptide)
chain: KKMLQRRTLL
5.09: GRID2IP_2, A4D2P6; [2]
below the threshold: IL16_3, Q14005; [2] | GRIP1_7, Q9Y3R0; [2] | LIN7A, O14910; [2] | DLG4_3, P78352; [2] | GRIP2_4, Q9C0E4; [2] | GRIP2_7, Q9C0E4; [2] | CARD11, Q9BXL7; [2] | FRMPD2_3, Q68DX3; [2] | MPP7, Q5T2T1; [2] | Inadl_2, Q8NI35; [2] | HTRA2, O43464; [2] | NHERF4_2, Q86UT5; [2] | DVL3, Q92997; [2] | FRMPD2_1, Q68DX3; [2] | GRIP1_3, Q9Y3R0; [2] | NHERF4_4, Q86UT5; [2] | SNTG2, Q9NY99; [2] | SYNJ2BP, P57105; [2] | IL16_1, Q14005; [2] | GRIP1_4, Q9Y3R0; [2]
4.61: PDZD7_3, Q9H5P4; [2]
4.09: DLG1_2, Q12959; [2]
3.81: DLG4_2, P78352; [2]
4.51: NHERF4_1, Q86UT5-2; [2]
4.85: MAGI1_2, Q96QZ7; [2]
3.75: SNX27, Q96L92; [2]
4.41: MAST1, Q9Y2H9; [2]
